Common to all, as to assay: capture ELISA, alanine scan, vs silent alanine substitutions
For orientation: In an ELISA, binding on a coated surface is turned into a signal by an enzyme label.

Assay [1] has as its target T1, hCTLA4_ECD.His point mutant H39 to alanine (human, UniProt P16410 36-161).
T1 construct: extracellular domain; alanine-scan mutein, HEK293F supernatant
T1 sequence (looked up): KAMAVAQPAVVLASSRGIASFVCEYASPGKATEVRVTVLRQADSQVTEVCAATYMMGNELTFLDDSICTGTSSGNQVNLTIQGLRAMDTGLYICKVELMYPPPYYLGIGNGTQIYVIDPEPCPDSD
The method, then: (§1) In order to test how the mutations affect antibody-binding, a capture ELISA was conducted. […] After interacting with the supernatant that contains quantified CTLA4 muteins, HRP conjugated anti-His antibody (1:5000; Rockland Immunochemicals, Pottstown, Pa.) was added as detection antibody. TMB was used as substance of HRP. Absorbance was normalized according to the average of control mutants. After setting an additional cutoff to the binding fold change (<0.55), the final determined epitope residues were identified.

Assay [2] addresses T2, hCTLA4_ECD.His point mutant P137 to alanine (human, UniProt P16410 36-161).
T2 construct: extracellular domain; alanine-scan mutein, HEK293F supernatant
T2 sequence (looked up): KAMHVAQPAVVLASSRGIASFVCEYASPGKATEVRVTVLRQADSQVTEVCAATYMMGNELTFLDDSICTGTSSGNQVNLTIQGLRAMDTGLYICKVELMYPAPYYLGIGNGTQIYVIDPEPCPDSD
The procedure:
as §1

The target in assay [3] is T3, hCTLA4_ECD.His point mutant V84 to alanine (human, UniProt P16410 36-161).
T3 construct: extracellular domain; alanine-scan mutein, HEK293F supernatant
T3 sequence (looked up): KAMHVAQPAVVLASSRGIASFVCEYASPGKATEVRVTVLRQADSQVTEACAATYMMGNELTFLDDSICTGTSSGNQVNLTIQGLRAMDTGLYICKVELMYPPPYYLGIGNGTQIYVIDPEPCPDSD
The method, then: as §1

Assay [4] has as its target T4, hCTLA4_ECD.His point mutant R75 to alanine (human, UniProt P16410 36-161).
T4 construct: extracellular domain; alanine-scan mutein, HEK293F supernatant
T4 sequence (looked up): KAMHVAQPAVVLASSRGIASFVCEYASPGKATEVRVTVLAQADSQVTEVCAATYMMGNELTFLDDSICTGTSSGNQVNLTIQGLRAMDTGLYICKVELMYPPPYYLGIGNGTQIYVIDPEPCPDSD
The method, then:
as §1

Assay [5] concerns the target T5, hCTLA4_ECD.His point mutant E83 to alanine (human, UniProt P16410 36-161).
T5 construct: extracellular domain; alanine-scan mutein, HEK293F supernatant
T5 sequence (looked up): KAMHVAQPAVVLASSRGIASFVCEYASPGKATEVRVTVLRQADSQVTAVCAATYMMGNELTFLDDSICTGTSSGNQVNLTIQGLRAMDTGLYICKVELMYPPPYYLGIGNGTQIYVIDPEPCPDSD
The procedure:
as §1

For assay [6], the target named is T6, hCTLA4_ECD.His point mutant V73 to alanine (human, UniProt P16410 36-161).
T6 construct: extracellular domain; alanine-scan mutein, HEK293F supernatant
T6 sequence (looked up): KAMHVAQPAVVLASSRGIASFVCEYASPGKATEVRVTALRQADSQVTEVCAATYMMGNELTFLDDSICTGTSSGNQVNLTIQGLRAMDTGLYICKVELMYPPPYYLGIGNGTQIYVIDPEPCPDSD
The procedure:
as §1

The target in assay [7] is T7, hCTLA4_ECD.His point mutant M38 to alanine (human, UniProt P16410 36-161).
T7 construct: extracellular domain; alanine-scan mutein, HEK293F supernatant
T7 sequence (looked up): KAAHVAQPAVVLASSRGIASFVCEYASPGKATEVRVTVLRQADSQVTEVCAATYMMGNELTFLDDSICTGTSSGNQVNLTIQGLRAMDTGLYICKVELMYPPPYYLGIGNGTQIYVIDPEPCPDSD
The procedure:
as §1

The target of assay [8] is T8, hCTLA4_ECD.His point mutant V71 to alanine (human, UniProt P16410 36-161).
T8 construct: extracellular domain; alanine-scan mutein, HEK293F supernatant
T8 sequence (looked up): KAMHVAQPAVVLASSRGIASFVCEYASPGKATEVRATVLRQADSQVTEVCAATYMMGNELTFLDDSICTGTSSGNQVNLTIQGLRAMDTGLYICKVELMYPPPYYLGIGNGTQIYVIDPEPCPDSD
The method, then: as §1

The target of assay [9] is T9, hCTLA4_ECD.His point mutant G146 to alanine (human, UniProt P16410 36-161).
T9 construct: extracellular domain; alanine-scan mutein, HEK293F supernatant
T9 sequence (looked up): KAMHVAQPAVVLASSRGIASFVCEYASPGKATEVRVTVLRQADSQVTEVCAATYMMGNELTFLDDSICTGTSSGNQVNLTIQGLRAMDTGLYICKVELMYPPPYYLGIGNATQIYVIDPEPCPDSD
The method, then:
as §1

The target in assay [10] is T10, hCTLA4_ECD.His point mutant P136 to alanine (human, UniProt P16410 36-161).
T10 construct: extracellular domain; alanine-scan mutein, HEK293F supernatant
T10 sequence (looked up): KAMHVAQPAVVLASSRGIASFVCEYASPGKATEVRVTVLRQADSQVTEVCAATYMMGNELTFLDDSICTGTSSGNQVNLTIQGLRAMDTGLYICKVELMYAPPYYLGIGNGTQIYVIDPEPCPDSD
The procedure:
as §1

Assay [11] concerns the target T11, hCTLA4_ECD.His point mutant A66 to glycine (human, UniProt P16410 36-161).
T11 construct: extracellular domain; alanine-scan mutein (alanine residues were mutated to glycine), HEK293F supernatant
T11 sequence (looked up): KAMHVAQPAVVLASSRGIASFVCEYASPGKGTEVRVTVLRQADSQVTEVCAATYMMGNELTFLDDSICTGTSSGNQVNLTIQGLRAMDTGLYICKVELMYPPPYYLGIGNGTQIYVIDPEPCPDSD
The method, then:
as §1

B1: W3162_1.154.8-z35-uAb.IgG1K (antibody, V domains shown)
VH: QVQLVQSGAEVKKPGSSVKVSCKASGYTFTNYFMNWVRQAPGQGLEWMGRVDPEQGRADYAEKFKKRVTITADKSTSTAYMELSSLRSEDTAVYYCARRAMDNYGFAYWGQGTLVTVSS
VL: EIVLTQSPDFQSVTPKEKVTITCSANSALSYMYWYQQKPDQSPKLWVHGTSNLASGVPSRFSGSGSGTDFTLTINSLEAEDAATYYCHHWSNTQWTFGGGTKVEIK
notes: Humanized; label says IgG1K
On to B1, for which the Fold change in [1] is 0.549 fold; in [2] it was 0.534 fold; in assay [3], 0.232 fold; in [4] it was 0.298 fold; in assay [5], 0.479 fold; in [6] it was 0.498 fold. Moreover, the Fold change came to 0.238 fold in [7]; 0.347 fold in assay [8]; 0.201 fold in [9]; 0.155 fold in assay [10]; 0.519 fold in assay [11].

B2: W3162-1.146.19-z12-uAb.IgG1K (antibody, V domains shown)
VH: QVQLQESGPGLVKPSETLSLTCSVTYHTITSGYDWTWIRKPPGKGMEWIGYISYSGNTNYNPSLKSRVTISRDTSKNQFFLKLSSVTAADTAVYYCASMMVPHYYVMDAWGQGTLVTVSS
VL: DIVMTQTPLSLSVTPGQPASISCRSSQSLLNSDGNTYLYWYLQKPGQSPQLLIYLVSKLGSGVPNRFSGSGSGTDFTLKISRVEAEDVGVYYCVQGTHDPWTFGGGTKVEIK
notes: Humanized; label says IgG1K
Regarding B2, the Fold change in assay [1] was determined as 0.529 fold; in [2] it was 0.425 fold; in assay [3], 0.201 fold; in assay [4], 0.278 fold; in assay [5] it was 0.405 fold; in assay [6], 0.338 fold. The Fold change came out at 0.182 fold in assay [7]; 0.343 fold in assay [8]; 0.166 fold in assay [9]; 0.231 fold in [10]; 0.395 fold in assay [11].

(Values after patent US20200277377A1 (WUXI BIOLOGICS SHANGHAI, published 2020).)
